# Reference: patent US20260034233A1 (SUNMED THERAPEUTIC, published 2026)
# Target: T1, human Galectin-3 (human, UniProt P17931 2-250, limits assumed)
# T1 construct: also called Human GAL-3; hGal-3
# Test: Carterra LSA SPR epitope binning, antibody on chip, hGal-3 injected
# Description: The purpose of this study is to determine the epitope binning of antibodies against human Gal-3. Binning assay was conducted to characterize epitopes of the anti-Gal-3 antibodies using a Carterra LSA instrument. All the antibodies were constructed in hIgG4 backbone. Antibodies as ligands were covalently linked to a HC200M chip. The antigen hGal-3 as the analyte was injected to flow cells to bind to the captured ligands. Competitive binning was programmed to determine if two mAbs can bind simultaneously to the same antigen.
# Epitope binning assay procedure. An array of antibodies as ligand were coupled to the chip surface HC200M using the Multichannel PH with the running buffer (25 mM MES buffer). The NHS/EDC activation time and coupling time was set at 5 min and 15 min respectively. The SFC then docked onto the chip, and in each cycle, antigen human Galectin-3 was injected across the entire Ab array, with association time of 5 min, followed by a single antibody as analyte with association time of 5 min. After 1 min dissociation, regeneration buffer (pH 2.0, 10 mM Glycine) was applied for 20 s for three times. The data were analyzed by Caterra Epitope Data Analysis Software.
# T1 sequence (P17931 2-250 limits assumed): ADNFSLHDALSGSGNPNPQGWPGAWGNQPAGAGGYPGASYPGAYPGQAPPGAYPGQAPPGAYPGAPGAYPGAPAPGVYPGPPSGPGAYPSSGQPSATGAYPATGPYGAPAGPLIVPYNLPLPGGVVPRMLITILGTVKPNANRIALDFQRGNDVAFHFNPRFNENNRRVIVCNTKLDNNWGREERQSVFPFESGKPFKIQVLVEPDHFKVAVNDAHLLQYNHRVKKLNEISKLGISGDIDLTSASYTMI
row,Binder,binding result
1,"1220SBC1068-022 (antibody, IgG4, V domains shown) VH: EVKLVESGGGLVQPGGSRKLSCAASGFTFSDYGMAWFRQAPGKGPEWVAFISNLAYSVYYADTVTGRFTISRENAKNTLFLEMSSLRSEDTAIYYCTRDRGLRESMDYWGQGTSVTVSS VL: DIVMTQAAPSVPVTPGESVSISCRSSKSLLHNNGNTYLCWFLQRPGQSPQLLIYRMSDLASGVPDRFSGSGSGTAFTLRISRVEAEDVGVYYCMQHLEYPYTFGGGTKLEIK",binds
2,"1220SBC1068-210 (antibody, IgG4, V domains shown) VH: EVKLLESGGGLVQPGGSLKLSCAASGFDFSRYWMSWVRQAPGKGLEWIGEINPDSSTIDLTPSLKDNFIISRDNAKNALYLQMSKVRSEDTALYYCTRPYYGYYWGQGTLVTVSA VL: DIVMTQSPSSLTVTAGEKVTMNCRSSQSLLNSTNQKNYLTWYQQRPGQPPKLLIYWASTRESGVPDRFTGSGSGTDFTLTISTVQAEDLAVYYCQNDYTSPFTFGSGTKLEIK",binds
3,"1220SBC1068-164 (antibody, IgG4, V domains shown) VH: EVKLLESGGGLVQPGGSLKLSCAASGFDFSRYWMSWVRQAPGKGLEWIGEISPDSSTINYTASLKDKFNISRDNAKNTLYLQMSKVRSEDTALYYCARPYYGYYWGQGTLVTVSE VL: DIVMTQSPSSLTVTAGEKVTMSCKSSQSLFNSGNQKNYLTWYQQKPGQPPKLLIYWAYTRESGVPDRFTGSGSGTDFTLTIHGVQAEDLAVYYCHNDYTSPFTFGSGTKLEMK",binds
4,"1220SBC1068-098 (antibody, IgG4, V domains shown) VH: EVKLLESGGGLVQPGGSLKLSCAASGFDFSRYWMSWVRQAPGKGLEWIGEISPDSSTIDLTPSLKDNFIISRDNAKNALYLQMSKVKSEDTALYYCTRPYHGYYWGQGTLVTVSA VL: DIVMTQSPSSLTVTAGEKVTMNCRSSQSLLNSTNQKNYLTWYQQKPGQPPKLLIYWASTKESGVPDRFTGSGSGTDFTLTINTVQAEDLAVYYCQNDYTSPFTFGSGTKLEIK",binds
5,"1220SBC1068-035 (antibody, IgG4, V domains shown) VH: EVQLQQSGPELVKPGASMKISCKASGYAFTGYTMNWVKQSHGKNLEWIGLISPYSGGTNYNQRFKGKATFTVDKSSSTAYMELLSLTSEDSGVYYCARSGFITTGVPTNFDVWGAGTTVTVSS VL: DIVMTQSHKFMSTSVGDGVNITCKASQDVSTAVAWYQQKPGQSPRLLIYSASYRYTGVPDRFTGSGSGTDFTFTISSMQAEDLAVYYCQQHYTTPRTFGGGTKLEIK",binds
6,"1220SBC1068-063 (antibody, IgG4, V domains shown) VH: EVNLLESGGGLVQPGGSLKLSCEASGFDFSRFWMSWVRQTPGEGLEWIGEISPNSSTIHQTPSLKDRFIISRDNAKNTLFLQMTKVTSDDSALYYCARPYYGYYWGHGTLVTVSA VL: DIVMTQSPSSLTVTAGEKVTMSCKSSQSLLSSINQKNYLTWYQQKPGQPPKLLIYWATSRESGVPDRFTGSGSGTDFTLTISSLQAEDLAVYYCHNDYSYPFTFGSGTRLEIK",binds
7,"1104SBC1068-378 (antibody, IgG4, V domains shown) VH: QIQLVQSGPELKKPGETVKISCKASGYTFTNYGMNWVKQAPGKGLKWMGWINTYTGEPTYADDFKGRFAFSLETSASTAYLQINNLKNEDTATYFCARWDDYDGFAYWGQGTLVTVSA VL: DIVLTQSPATLSVTPGDSVSLSCRASQSISNNLHWYQQKSHESPRLLIKYASQSISGIPSRFSGSGSGTDFTLSINSVETEDFGMYFCQQSNSWPLTFGAGTKLELK",binds
8,"1104SBC1068-335 (antibody, IgG4, V domains shown) VH: QIQLVQSGPELKKPGETVKISCKASGYIFTNYGMNWVKQAPGKGLKWMGWINTYSGEPTYVDDFKGRFVFSLETSASTAYLQINNLKNEDMATYFCARGTVVGFDYWGQGTTLTVSS VL: not shown",binds

# The next lines start with the values.
row,binding result,Binder
1,binds,"1220SBC1068-058 (antibody, IgG4, V domains shown) VH: EVKLVESGGGLVQPGGSRKLSCAASGFTFSDYGMAWFRQAPGKGPEWVAFISNLAYSVYYADTVTGRFTISRENAKNTLYLEMNSLRSEDTAIYYCTRDRGLRETMDYWGQGTSVTVSS VL: DIVMTQAAPSVPVTPGESVSISCRSSKSLLHNNGNTYLCWFLQRPGQSPQLLIYRMSNLASGVPDRFSGSGSGTAFTLRISRVEAEDVGVYYCMQHLEYPYTFGGGTKLEIK"
2,binds,"1220SBC1068-056 (antibody, IgG4, V domains shown) VH: EVKLVESGGGLVQPGGSRKLSCAASGFTFSDYGMAWFRQAPGKGPEWVAFISNLAYSVYYADTVTGRFTISRENAKNTLYLEMSSLRSEDTAIYYCTRDRGLRESMDYWGQGTSVTVSS VL: DIVMTQAAPSVPVTPGESVSISCGSSKSLLHKNGNTYLCWFLQRPGQSPQLLIYRMSNLASGVPDRFSGSGSGTAFTLRISSVEAEDVGIYYCMQHLEYPYTFGGGTKLEIK"
3,binds,"1220SBC1068-129 (antibody, IgG4, V domains shown) VH: EVKLLESGGDLVQPGGSLKLSCAASGFDFSRFWMSWVRQAPGKGLEWIGEINPDSSTITYTPSLKDKFIISRDNAKSSLYLQMSKVTSEDTALYYCARPYYGYYWGQGTLVTVSA VL: DIVMTQSPSSLTVTAGKEVTMSCKSSQSLLNSTNQKNYLTWYQQKPGQSPKLLIYWASTRDSGVPDRFTGSGSGTDFTLTISSVQAEDLAIYYCHNDYISPFTFGSGTKLEIK"
4,binds,"1220SBC1068-099 (antibody, IgG4, V domains shown) VH: EVKLLESGGGLVQPGGSLKLSCAASGFDFSRYWMTWVRQAPGKGLEWIGEINPHSSTITYTPSLKDKFIISRDNAKNTLYLQMSKVSSEDTALYYCARPYYGYYWGQGTLVTVSA VL: DIVMTQSPSSLTVTAGEKVTMSCKSSQSLLNSGNQKIYLTWYQQKPGQPPKLLIYWASIRESGVPDRFTGSGSGTDFTLTISSVQAEDLAVYYCQNDYSSPFTFGSGTKLEIK"
5,binds,"1220SBC1068-274 (antibody, IgG4, V domains shown) VH: EVKLLESGGGLVQPGGSLKLSCAASGFDFSRYWMSWVRQAPGKGLEWIGEISPDSNTIDLTPSLKDNFIISRDNAKNALYLQMSKLRSEDTALYYCTRPYYGYYWGQGTLVTVSA VL: DIVMTQSPSSLTVTAGEKVTMNCRSSQSLLNSTNQKNYLTWYQQKPGQPPKLLIYWASTRESGVPDRFTGSGSGSDFTLTISTVQAEDLAVYYCQNDYTSPFTFGSGTKLEIK"
6,binds,"1220SBC1068-097 (antibody, IgG4, V domains shown) VH: EVKLLESGGGLVQPGGSLKLSCAASGFDFSRYWMSWVRQAPGKGLEWIGEINPDSSTIDLTPSLKDNFIISRDNAKNALYLQMSKVKSEDTALYYCTRPYHGYYWGQGTLVTVSA VL: DIVMTQSPSSLTVTAGEKVTMNCRSSQSLLNSTNQKNYLTWYQQKPGQPPKLLIYWASTRESGVPDRFTGSGSGTDFTLTINTVQAEDLAIYYCQNDYTSPFTFGSGTKLEIK"
7,binds,"1220SBC1068-041 (antibody, IgG4, V domains shown) VH: EVKLLESGGGLVQPGGSLKLSCAASGFDFSRFWMSWVRQAPGKGLEWIGEISPDSNTIDLTPSLKDNFIISRDNAKNALFLQMSKVRSEDTALYYCTRPYYGYYWGQGTLVTVSA VL: DIVMTQSPSSLTVTAGEKVTMNCRSSQSLFNSTNQKNYLTWYQQKPGQPPKLLIYWASSRESGVPDRFTGSGSGTDFTLTISTVQTEDLAVYYCQNDYTSPFTFGSGTRLEIK"
8,binds,"1104SBC1068-033 (antibody, IgG4, V domains shown) VH: DVQLQESGPGLVKPSQSLSLTCTVTGYSITSDYAWNWIRQFPGNKLEWMGYISYSGSTSYNPSLKSRISITRDASKNQFFLQLNSVTTEDTATYYCAREGGRGGTEGYYFDYWGQGTTLTVSS VL: NIVLTQSPASLAVSLGQRATISCRASESVDSYGNSFMHWYQQKPGQPPKLLIYLASNLESGVPARFSGSGSRTDFTLTIDPVEADDAATYYCQQNNEDPLTFGAGTKLELK"
9,binds,"1220SBC1068-186 (antibody, IgG4, V domains shown) VH: EVQLQQSGPELVKPGASMKMSCKASGYSFTGYTMNWVKQSHGKNLEWIGLISPYSGGTNYNQKFKGKATLTVDKSSSTAYMEVFSLTSEDSGVYYCARSGFITTGVATNFDVWGAGTTVTVSS VL: DIVMTQSHKFMSTSVGDRVSITCKASQDVSTAVAWYQQRPGQSPKLLIYSASNRYTGVPDRFTGSGSGTDFTFTISSMQAEDLAIYYCQQHYSTPRTFGGGTKLEIK"
10,binds,"1220SBC1068-197 (antibody, IgG4, V domains shown) VH: EVNLLESGGGLVQPGGSLKLSCEASGFDFSRFWMSWVRQTPGEGLEWIGEISPNSSTIHQTPSLKDKFFISRDNAKSTLFLQMTNVTSEDSALYYCARPYYGYYWGHGTLVTVSA VL: DIVMTQSPSSLTVTAGEKVTMSCKSSQSLLNSINQKNYLTWYQQKPGQPPKLLIYWATFRESGVPDRFTGSGSGTDFTLTISGLQAEDLAVYYCHNDYSYPFTFGSGTRLEIK"
11,binds,"1104SBC1068-374 (antibody, IgG4, V domains shown) VH: QIQLVQSGPELKKPGETVKISCKASGYTFTNYGMNWVKQAPGKGLKWMGWINTYTGEPTYADDFKGRFAFSLETSASTAYLQINNLKNEDMATYFCARYAMDYWGQGTSVTVSS VL: QAVVTQESALTTSPGGTVILTCRSSTGAVTTSNYANWVQEKPDHLFTGLIGGTSNRAPGVPVRFSGSLIGDKAALTITGAQTEDDAMYFCALWYSTHYVFGGGTKVTVL"
12,binds,"1104SBC1068-365 (antibody, IgG4, V domains shown) VH: QIQLVQSGPELKKPGETVKISCKASGYTFTNYGMNWVKQAPGKGLKWMGWINTNTGEPTYSEEFKGRFAFSLETSASTAYLQINNLKNEDTATYFCGRSSYYAMDYWGQGTSVTVSS VL: not shown"
